Source: US20170355757A1 (Regeneron, published 2017)

T1: monkey C5-mmh (monkey, UniProt P01031 19-1676 (human entry), limits assumed)
T1 construct: Recombinant monkey C5 with a C-terminal myc-myc-hexahistidine tag
T1 chain: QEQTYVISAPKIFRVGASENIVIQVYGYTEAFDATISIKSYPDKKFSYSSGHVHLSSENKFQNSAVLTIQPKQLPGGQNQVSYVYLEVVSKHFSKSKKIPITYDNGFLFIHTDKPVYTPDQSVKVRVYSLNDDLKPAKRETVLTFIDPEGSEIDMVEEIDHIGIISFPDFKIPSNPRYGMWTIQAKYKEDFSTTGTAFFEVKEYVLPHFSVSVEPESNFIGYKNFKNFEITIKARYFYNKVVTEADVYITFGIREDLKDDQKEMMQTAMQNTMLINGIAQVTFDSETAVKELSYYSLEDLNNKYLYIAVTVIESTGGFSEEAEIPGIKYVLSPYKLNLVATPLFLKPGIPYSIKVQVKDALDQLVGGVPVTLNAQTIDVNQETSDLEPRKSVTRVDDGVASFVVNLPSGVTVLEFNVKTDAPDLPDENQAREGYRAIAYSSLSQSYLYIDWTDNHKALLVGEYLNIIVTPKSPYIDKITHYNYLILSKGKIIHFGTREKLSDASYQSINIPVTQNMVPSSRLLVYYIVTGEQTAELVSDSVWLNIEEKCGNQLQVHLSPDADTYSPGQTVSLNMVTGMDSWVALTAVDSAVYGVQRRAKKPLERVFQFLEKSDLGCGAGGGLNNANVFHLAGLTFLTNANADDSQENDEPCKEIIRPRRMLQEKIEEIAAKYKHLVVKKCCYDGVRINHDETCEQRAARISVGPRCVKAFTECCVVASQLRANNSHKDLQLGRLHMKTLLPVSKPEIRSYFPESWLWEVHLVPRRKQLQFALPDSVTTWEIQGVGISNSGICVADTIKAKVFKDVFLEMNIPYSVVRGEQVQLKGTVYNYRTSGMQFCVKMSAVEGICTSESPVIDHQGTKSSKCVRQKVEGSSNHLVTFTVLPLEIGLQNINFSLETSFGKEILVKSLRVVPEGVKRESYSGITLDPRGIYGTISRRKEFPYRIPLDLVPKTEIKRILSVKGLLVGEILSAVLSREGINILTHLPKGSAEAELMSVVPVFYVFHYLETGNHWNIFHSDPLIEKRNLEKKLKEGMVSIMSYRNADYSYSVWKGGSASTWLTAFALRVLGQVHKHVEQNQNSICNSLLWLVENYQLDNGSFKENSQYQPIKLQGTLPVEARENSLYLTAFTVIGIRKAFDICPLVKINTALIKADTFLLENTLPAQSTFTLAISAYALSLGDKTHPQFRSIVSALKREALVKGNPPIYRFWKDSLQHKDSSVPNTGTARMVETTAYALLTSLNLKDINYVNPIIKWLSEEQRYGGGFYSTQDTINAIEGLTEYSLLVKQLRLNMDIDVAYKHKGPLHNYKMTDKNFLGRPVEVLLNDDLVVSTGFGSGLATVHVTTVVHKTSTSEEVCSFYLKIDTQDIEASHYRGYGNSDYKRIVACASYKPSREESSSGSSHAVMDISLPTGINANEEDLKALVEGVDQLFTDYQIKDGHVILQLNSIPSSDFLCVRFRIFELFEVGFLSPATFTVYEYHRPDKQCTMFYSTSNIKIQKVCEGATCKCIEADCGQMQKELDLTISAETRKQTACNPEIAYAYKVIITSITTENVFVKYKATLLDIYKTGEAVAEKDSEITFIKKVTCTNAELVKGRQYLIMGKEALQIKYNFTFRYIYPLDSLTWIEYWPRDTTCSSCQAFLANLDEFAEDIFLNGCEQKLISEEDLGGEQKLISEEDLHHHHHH


Tests used:
human C5 = target: T2, human C5 (human, UniProt P01031 19-1676); experiment: SPR, mAb captured via anti-hFc, dissociation at pH7.4 vs pH6.0, 25C
T2 construct: Bought human C5 (EMD #204888, said elsewhere to be purified from plasma); also called hC5; complement component 5
Procedure: Effect of pH on the rate of dissociation of recombinant human C5 bound to purified anti-C5 monoclonal antibodies was determined using a real-time surface plasmon resonance biosensor using a Biacore T200 instrument. The Biacore sensor surface was first derivatized by amine coupling with a monoclonal mouse anti-human Fc antibody (GE, # BR-1008-39) to capture anti-C5 monoclonal antibodies expressed with human IgG4 Fc. All Biacore binding studies were performed using two running buffers PBS-T, pH7.4 (0.01M Na₂HPO₄/NaH₂PO₄, 0.15M NaCl, 0.05% v/v Tween-20, adjusted to pH7.4) and PBS-T, pH6.0 (0.01M Na₂HPO₄/NaH₂PO₄, 0.15M NaCl, 0.05% v/v Tween-20, adjusted to pH6.0). […] Binding dissociative half-lives (t %) were calculated from kd as: […]

monkey C5-mmh = target: T1, monkey C5-mmh; experiment: SPR, mAb captured via anti-hFc, 37C
In short: (§1)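 First, the antibodies were captured through their human Fc on an anti-human Fc surface. Next, C5 reagents were injected for 3 min and dissociation in HBST buffer was recorded for 8 min. Finally, sensorgrams were fitted to a 1:1 model and KD derived as kd/ka.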

human C5 R885C-mmh [1] = target: T3, human C5 R885C-mmh (human, UniProt P01031 19-1676); experiment: SPR, mAb captured via anti-hFc, 37C
T3 construct: also called human C5 variant R885C
In short: as §1

human C5 R885H-mmh [2] = target: T4, human C5 R885H-mmh (human, UniProt P01031 19-1676); experiment: SPR, mAb captured via anti-hFc, 37C
T4 construct: also called human C5 variant R885H
In short: as §1

human C5 R885C-mmh [3] = target: T3, human C5 R885C-mmh; experiment: SPR, mAb captured via anti-hFc, 25C
In short: as §1

human C5 R885H-mmh [4] = target: T4, human C5 R885H-mmh; experiment: SPR, mAb captured via anti-hFc, 25C
In short: as §1

t1/2 Ratio pH7.4/pH6.0 (human C5) | 100 nM monkey C5-mmh Bound (RU) (monkey C5-mmh) | Kd (monkey C5-mmh) [nM] | koff (monkey C5-mmh) [s⁻¹] | kon (monkey C5-mmh) [M⁻¹ s⁻¹] | t1/2 (monkey C5-mmh) [min] | 100 nM Human C5 R885C-mmh Bound (RU) (human C5 R885C-mmh [1]) | Kd (human C5 R885C-mmh [1]) [nM] | koff (human C5 R885C-mmh [1]) [s⁻¹] | kon (human C5 R885C-mmh [1]) [M⁻¹ s⁻¹] | t1/2 (human C5 R885C-mmh [1]) [min] | 100 nM Human C5 R885H-mmh Bound (RU) (human C5 R885H-mmh [2]) | Kd (human C5 R885H-mmh [2]) [nM] | koff (human C5 R885H-mmh [2]) [s⁻¹] | kon (human C5 R885H-mmh [2]) [M⁻¹ s⁻¹] | t1/2 (human C5 R885H-mmh [2]) [min] | 100 nM Human C5 R885C-mmh Bound (RU) (human C5 R885C-mmh [3]) | Kd (human C5 R885C-mmh [3]) [nM] | koff (human C5 R885C-mmh [3]) [s⁻¹] | kon (human C5 R885C-mmh [3]) [M⁻¹ s⁻¹] | Binder | further results
0.9 | 74 | 15.6 | 0.00276 | 177000 | 4 | 4 | 159 | 0.0179 | 112000 | 1 | 30 | 69.4 | 0.0095 | 137000 | 1 | 128 | 190 | 0.0155 | 81800 | H4H12175P (antibody, human IgG4, V domains shown, Human IgG4 Fc with S108P hinge mutation (H4H)) VH: EVQLVESGGGVVQPGGSLRLSCAASGFTFNDYAMHWVRQAPGKGLEWVSLISGDGGNTYYADSVKGRLTISRDNSKNSLYLQMNSLRTEDTALYYCAKDKGWNFGYFDLWGRGTLVTVSS VL: DIQMTQSPSSLSTSVGDRVTITCRASQNIDTYLNWYQQKPGKAPKLLIYDASSLQSGVPSRFSGSGSGTDFTLTITSLQPEDFATYYCQQNDNILHPLTFGGGTKVEIK | t1/2 (human C5 R885C-mmh [3]): 1 min; 100 nM Human C5 R885H-mmh Bound (RU) (human C5 R885H-mmh [4]): 207 RU; Kd (human C5 R885H-mmh [4]): 10.9 nM; koff (human C5 R885H-mmh [4]): 0.00198 s⁻¹; kon (human C5 R885H-mmh [4]): 181000 M⁻¹ s⁻¹; t1/2 (human C5 R885H-mmh [4]): 6 min
1.5 | 29 | 12.7 | 0.000676 | 53300 | 17 | 21 | 8.9 | 0.000569 | 63800 | 20 | 29 | 50.4 | 0.00123 | 24300 | 9 | 144 | 3.27 | 0.000199 | 60900 | H4H12168P (antibody, human IgG4, V domains shown, Human IgG4 Fc with S108P hinge mutation (H4H)) VH: QVQLVESGGGVVQPGGSLRLSCAASGFTFGGHAMHWVRQAPGKGLEWLAVISSDGSNKQYADSVKGRFTISRDNPKNTLYLQMNSLRVGDTAIYYCAKEVAPRYYYYGLDVWGQGTTVTVSS VL: DIQMTQSPSSLSASVGDRVTITCRASQDISNFLAWYQQKPGKVPKLLIYTASTLQSGVPSRFSGSGSGTDFTLTVSSLQPEDVATYYCQKYAGALTFGPGTKVDIK | t1/2 (human C5 R885C-mmh [3]): 58 min; 100 nM Human C5 R885H-mmh Bound (RU) (human C5 R885H-mmh [4]): 197 RU; Kd (human C5 R885H-mmh [4]): 4.05 nM; koff (human C5 R885H-mmh [4]): 0.000214 s⁻¹; kon (human C5 R885H-mmh [4]): 52900 M⁻¹ s⁻¹; t1/2 (human C5 R885H-mmh [4]): 54 min
0.3 | 99 | 6.3 | 0.00117 | 186000 | 10 | 64 | 5.85 | 0.00104 | 177000 | 11 | 68 | 5.46 | 0.00106 | 195000 | 11 | 249 | 1.19 | 0.000182 | 153000 | H4H12164P (antibody, human IgG4, V domains shown, Human IgG4 Fc with S108P hinge mutation (H4H)) VH: EVQLVESGGGLVRSGGSLRLSCAASGFTFNRYAMTWVRQAPGKGLEWVSAISGSGSSTYYTDSVKGRFTISRDNSKNSVDLQMHSLRVEDTAIYYCARGTTVTTGYGMDVWGQGTTVTVSS VL: DIQMTQSPSSLSASVGDRVTFTCQASQDITNSLNWYQQKPGRAPKLLIYDASYLKAGVPSRFSGSGSGTDFTFTISSLQPEDIATYYCQQYDDLPYTFGQGTKLEIK | t1/2 (human C5 R885C-mmh [3]): 63 min; 100 nM Human C5 R885H-mmh Bound (RU) (human C5 R885H-mmh [4]): 295 RU; Kd (human C5 R885H-mmh [4]): 1.19 nM; koff (human C5 R885H-mmh [4]): 0.000187 s⁻¹; kon (human C5 R885H-mmh [4]): 158000 M⁻¹ s⁻¹; t1/2 (human C5 R885H-mmh [4]): 62 min
